Laboratory results from article PMC11609826 (Cancer Discovery, 2024).

Columns and labels:
Assay in all cases: ELISA
[1] = biological target: B- and T-lymphocyte attenuator (BTLA), recombinant (Homo sapiens (assumed), UniProt Q7Z6A9)
[2] = biological target: inducible T-cell costimulator (ICOS), recombinant (Homo sapiens (assumed), UniProt Q9Y6W8)
CD28, recombinant = CD28, recombinant (Homo sapiens (assumed), UniProt P10747)
PD-1, recombinant = PD-1, recombinant (Homo sapiens (assumed), UniProt Q15116)
Chain of PD-1, recombinant (Q15116 25-288): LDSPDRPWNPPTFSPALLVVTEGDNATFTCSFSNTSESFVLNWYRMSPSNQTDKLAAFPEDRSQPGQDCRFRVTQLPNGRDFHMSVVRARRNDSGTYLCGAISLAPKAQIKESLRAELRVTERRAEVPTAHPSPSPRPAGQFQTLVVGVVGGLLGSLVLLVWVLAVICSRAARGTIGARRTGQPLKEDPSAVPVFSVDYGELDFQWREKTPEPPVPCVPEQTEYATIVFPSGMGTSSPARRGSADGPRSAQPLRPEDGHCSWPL

Measured: binding result

Chain of inducible T-cell costimulator (ICOS), recombinant (Q9Y6W8 21-199): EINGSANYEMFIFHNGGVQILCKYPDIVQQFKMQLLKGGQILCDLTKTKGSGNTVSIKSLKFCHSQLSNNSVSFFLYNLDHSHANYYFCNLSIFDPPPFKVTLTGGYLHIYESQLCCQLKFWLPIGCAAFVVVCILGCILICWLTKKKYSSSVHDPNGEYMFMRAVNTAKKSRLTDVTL

B1: Botensilimab (antibody, V domains shown)
VH: EVQLVESGGGLVKPGGSLRLSCAASGFTFSSYSMNWVRQAPGKGLEWVSSISSSSSYIYYAESVKGRFTISRDNAKNSLYLQMNSLRAEDTAVYYCARVGLFGPFDIWGQGTLVTVSS
VL: EIVLTQSPGTLSLSPGERATLSCRASQSVSRYLGWYQQKPGQAPRLLIYGASTRATGIPDRFSGSGSGTDFTLTITRLEPEDFAVYYCQQYGSSPWTFGQGTKVEIK
no binding (tested: 1,000 ng/mL): all assays above
